Measurements as given in patent publication US10662230B2, “Cyclic RGD cell-binding motif and uses thereof” (Spiber Technologies AB, priority 2015, dated 2020).

Experiments:
Type in all cases: cell-based
[1] = system: Normal human epidermal keratinocytes (KC); assay: Early attachment assay, keratinocytes on silk films; conditions: for adhesion in each individual experiment: KC on tested silk films
Protocol: Normal human epidermal keratinocytes from adult skin (NHEK-ad) were purchased from Lonza. Subculture, proliferation and migration experiments were done in KGM-Gold (Lonza), containing bovine pituitary extract, whereas adhesion experiments were performed in KGM-CD (chemically defined), supplemented with CaCl2) to give 1.2 mM Ca^2+.
Cells were harvested at passage 3-8, seeded at 20 000/cm^2 and allowed to adhere to the films or controls for 1 h in a cell incubator before gentle washing twice with pre-warmed phosphate buffered saline (PBS) followed by 10 min fixation with 96% ethanol. After three washings in water, cells were stained for 30 min with 0.1% Crystal Violet in H2O. Plates were dried after extensive washing in water.
Attachment and morphology of cells bound to the films obtained in Example 3 were documented by taking micrographs at 2× and 10× magnification in an inverted bright field microscope. The color was then dissolved in 40 μL 20% acetic acid for 10 min, and 35 μL of the solution was transferred to a 384-well plate for optical density measurement at 595 nm (TECAN Infinite M200). Wells with cells fixed without pre-washing was used as positive control. Wells with no cells were used as blank. Experiments were run in hexaplicates and repeated three times.
Determination of cell coverage area within a defined region (9.12 mm^2) of the micrographs (at 2× magnification) was done using the software NIS elements BR (Nikon).
After seeing this positive effect of the introduced FNCC motif, we wanted to find out how well the FNCC-silk would compare to native, full length fibronectin, where the RGD is presented on a turn loop constrained by the structure. We therefore used fibronectin from bovine plasma (BFN) to coat cell culture wells, as well as naked cell culture treated plastic (TCT), on which KC can be cultured, as a control. Serum-free experimental conditions was chosen to avoid possible interactions between the matrices and serum proteins that potentially could give rise to increased cell adherence.
For this purpose, we used two FN-silk variants where a linear RGD presentation is expected (FIG. 1a). The first variant (FNVS; SEQ ID NO: 15), contains the original sequence of the RGD-containing motif in fibronectin, to show the effect of the native flanking amino acids without influence of the loop conformation. In the second variant (FNSS; SEQ ID NO: 14), the two flanking cysteines in FNCC were substituted for serine, which resembles cysteine but lacks the —SH-group and is therefore unable to form disulfide bridges. The different FN-silk variants, as well as RGD-silk (SEQ ID NO: 16) and WT-silk (SEQ ID NO: 2), were evaluated with primary KC. Cells were analyzed both for early attachment (FIG. 5), spreading and formation of stress fibers (FIG. 6), and focal adhesions (FIG. 7). Early attachment assay and cellular stainings were performed as detailed in Example 6.

[2] = system: Normal human epidermal keratinocytes (KC); assay: Cell spreading by F-actin staining, keratinocytes; conditions: 3 h adhesion; for spreading of KC (total cell area in 4× micrographs): seeding 3 500/cm^2
Protocol: Cells were harvested at passage 3-8, seeded at 3500/cm^2 and allowed to adhere onto films for 20 min, 1 or 3 hours in chamber slides. After gentle washing, cells were fixed with 4% paraformaldehyde, permeabilized with 0.1% Triton X-100 in PBS, and blocked with 1% bovine serum albumin (BSA, AppliChem) in PBS. Secondary antibody was AlexaFlour488 goat anti mouse IgG (H+L), cross adsorbed (Invitrogen), used at 1:500. Phalloidin-AlexaFluor594 (Life Technologies) were used at 1:40 to detect filamentous actin. DAPI was used for nuclear staining. Slides were mounted in Fluorescence mounting medium (Dako, Copenhagen). The stained cells were analyzed using an inverted microscope (Nikon Eclipse Ti) at 4× and 10× magnification. Excitation at 563/45 nm and detection at 625/50 nm was used for red fluorescence, whereas excitation with 387/11 nm and detection at 447/60 nm was used to monitor blue fluorescence. By staining for F-actin, cell spreading and formation of stress fibers in KC after 3 h adhesion were investigated (FIG. 6).

[3] = system: Normal human epidermal keratinocytes (KC); assay: Formation of focal adhesions (F-actin/vinculin staining), keratinocytes; conditions: 3 h adherence, 63× magnification
Protocol: Cells were harvested at passage 3-8, seeded at 3500/cm^2 and allowed to adhere onto films for 20 min, 1 or 3 hours in chamber slides. After gentle washing, cells were fixed with 4% paraformaldehyde, permeabilized with 0.1% Triton X-100 in PBS, and blocked with 1% bovine serum albumin (BSA, AppliChem) in PBS.
Primary antibody were used at the following concentrations in 1% BSA: mouse anti human vinculin (Sigma V9131) at 9.5 μg/ml, mouse-anti human beta1-integrin (activated conformation, clone HUTS-4) at 3.3 μg/mL, or mouse-anti human alpha5-integrin (ligand bound conformation, clone SNAKA-51) at 2.5 μg/mL, both Millipore.
Secondary antibody was AlexaFlour488 goat anti mouse IgG (H+L), cross adsorbed (Invitrogen), used at 1:500. Phalloidin-AlexaFluor594 (Life Technologies) were used at 1:40 to detect filamentous actin. DAPI was used for nuclear staining. Slides were mounted in Fluorescence mounting medium (Dako, Copenhagen).
For microscopic analysis of cell adhesion (formation of focal adhesions and stress fibers), a confocal microscope was used (Carl Zeiss LSM 710) at 10× and 63× magnification.
Quality of focal adhesions were graded from 1-4 regarding presence of small and dim focal adhesion (=1p), small and distinct focal adhesions (=2p), abundant focal adhesions (=3p) and large and bright focal adhesions (=4p), and multiplied with the portion of positive cells expressing this specific type of focal adhesions (0-4, where 0≈none of, 1≈one fourth of, 2≈half of, 3≈three fourths of, and 4≈all of the focal adhesion-positive cells.)
Formation of focal adhesions within the cells was analyzed after 3 h by staining for F-actin in combination with vinculin, which is one of the major components of the focal adhesion complex. Co-staining of F-actin and vinculin is thus a sign of integrin-involved, well established binding of cells to the underlying substrate. Focal adhesions appear as yellow-greenish elongations of the F-actin filaments, often situated close to the cell membrane.
The results from the analysis of formation and characterization of focal adhesions in KC after adherence for 3 h onto films of WT-silk (SEQ ID NO: 2) or silk functionalized with FNCC (SEQ ID NO: 13), FNVS (SEQ ID NO: 15), FNSS (SEQ ID NO: 14) or RGD (SEQ ID NO: 16) is presented in FIG. 7. Slides were scanned with a confocal microscope at 10× for overview (FIG. 7a) and at 63× for details (FIG. 7b). Two types of grading of the focal adhesions in the cells were performed.

BFN: fibronectin from bovine plasma (Sigma-Aldrich F1137), coated at 5 μg/cm^2 [reference compound]
cell coverage area within a defined region (9.12 mm^2) ([1]; KC, 1 h adhesion, comparison with bovine fibronectin coating and TCT plastic, serum-free): bound equally well to the BFN and the FNCC-silk after 1 h adherence, and importantly both significantly better than TCT

B1: RGD-silk: 4RepCT silk with the linear RGD containing peptide (SEQ ID NO 12) of Widhe et al. (2013) (protein)
chain: GPNSRGDAGAASGQGGYGGLGQGGYGQGAGSSAAAAAAAAAAAAGGQGGQGQGGYGQGSGGSAAAAAAAAAAAAAAAGRGQGGYGQGSGGNAAAAAAAAAAAAAAAGQGGQGGYGRQSQGAGSAAAAAAAAAAAAAAGSGQGGYGGQGQGGYGQSSASASAAASAASTVANSVSRLSSPSAVSRVSSAVSSLVSNGQVNMAALPNIISNISSSVSASAPGASGCEVIVQALLEVITALVQIVSSSSVGYINPSAVNQITNVVANAMAQVMG
modifications: Fusion protein
cell morphology (F-actin) [2]: a higher proportion of cells with a rounded appearance
quality (grading) of focal adhesions [3]: variation of focal adhesion quality is larger in cells on RGD, FNSS and FNVS than on FNCC-silk

B2: FNSS-silk: 4RepCT silk with linear control motif STGRGDSPAS (SEQ ID NO: 11), cysteines substituted for serines (protein)
chain: GPNSSTGRGDSPASGSASGQGGYGGLGQGGYGQGAGSSAAAAAAAAAAAAGGQGGQGQGGYGQGSGGSAAAAAAAAAAAAAAAGRGQGGYGQGSGGNAAAAAAAAAAAAAAAGQGGQGGYGRQSQGAGSAAAAAAAAAAAAAAGSGQGGYGGQGQGGYGQSSASASAAASAASTVANSVSRLSSPSAVSRVSSAVSSLVSNGQVNMAALPNIISNISSSVSASAPGASGCEVIVQALLEVITALVQIVSSSSVGYINPSAVNQITNVVANAMAQVMG
modifications: Fusion protein
adhesion in each individual experiment [1]: varied from being similar to RGD-silk to being only somewhat lower than on FNCC-silk
cell morphology (F-actin) [2]: a higher proportion of cells with a rounded appearance
spreading of KC (total cell area in 4× micrographs) [2]: but not FNSS or FNVS films, gave a significantly increased spreading of KC compared to RGD-film
quality (grading) of focal adhesions [3]: both prominent and subtle focal adhesions

B3: FNVS-silk: 4RepCT silk with original fibronectin motif VTGRGDSPAS (SEQ ID NO: 9), linear native control (protein)
chain: GPNSVTGRGDSPASGSASGQGGYGGLGQGGYGQGAGSSAAAAAAAAAAAAGGQGGQGQGGYGQGSGGSAAAAAAAAAAAAAAAGRGQGGYGQGSGGNAAAAAAAAAAAAAAAGQGGQGGYGRQSQGAGSAAAAAAAAAAAAAAGSGQGGYGGQGQGGYGQSSASASAAASAASTVANSVSRLSSPSAVSRVSSAVSSLVSNGQVNMAALPNIISNISSSVSASAPGASGCEVIVQALLEVITALVQIVSSSSVGYINPSAVNQITNVVANAMAQVMG
modifications: Fusion protein
adhesion in each individual experiment [1]: varied from being similar to RGD-silk to being only somewhat lower than on FNCC-silk
cell morphology (F-actin) [2]: a higher proportion of cells with a rounded appearance
spreading of KC (total cell area in 4× micrographs) [2]: but not FNSS or FNVS films, gave a significantly increased spreading of KC compared to RGD-film
quality (grading) of focal adhesions [3]: both prominent and subtle focal adhesions
